Test results published in patent US20090214583A1 (GOVERNMENT OF THE UNITED STATES OF AMERICA AS REPRESENTED …, published 2009).

Target: HLA-DRβ1*13 (human)
Experiment: cell-based or functional assay

Binder: KQIINMWQEIGKAMYA [Peptide 53]
- proliferation of KT9 cells: ≤ 2 fold
